Measurements from patent US20200332017A1 (SALUBRIS CHENGDU BIOTECH, published 2020).

How the values were obtained:
[1] = biological target: T1, full length human CD40 (uniprot # P25942-1) on the membrane of 293T-CD40 cells (human, UniProt P25942 21-277); test: cell-based or functional assay
[2] = biological target: T2, Human CD40-his protein (Acro biosystems, Cat # CD0-H5228) (human, UniProt P25942 21-193); test: SPR, Biacore; human CD40-his
T2 construct: Bought reagent; not shown: his tag
Description: (§1) Briefly, goat anti-mouse IgG (GE healthcare, Cat # BR100838, Mouse Antibody Capture Kit) was covalently linked to a CM5 or a Protein G chip (carboxy methyl dextran coated chip) via primary amines, using a standard amine coupling kit provided by Biacore (GE healthcare, Pittsburgh, Pa., USA). Un-reacted moieties on the biosensor surface were blocked with ethanolamine. […] Then, human CD40-his (Acro biosystems, Cat # CD0-H5228) or cynomolgus monkey CD40-his protein (Acro biosystems, Cat # CD0-052H6) in HBS EP buffer (provided by Biacore) was flowed onto the chip at a flow rate of 30 μL/min. The antigen-antibody association kinetics was followed for 2 minutes and the dissociation kinetics was followed for 10 minutes. The association and dissociation curves were fit to a 1:1 Langmuir binding model using BIA evaluation software.

[3] = biological target: T3, cynomolgus monkey CD40-his protein (Acro biosystems, Cat # CD0-052H6) (cynomolgus monkey, UniProt G7PG38 21-193); test: SPR, Biacore; cynomolgus CD40-his
T3 construct: Bought reagent; also called Cynomolgus CD40-his
Description: as §1

[4] = biological target: T1, full length human CD40 (uniprot # …); test: flow cytometry on 293T-CD40 cells
Procedure: 2×10⁵ cells per well in 96 well-plates were incubated with the mouse anti-CD40 antibodies or the controls of various concentrations in FACS buffer for 40 minutes on ice. […] Following an incubation of 40 minutes at 4° C. in dark, cells were washed three times and resuspended in FACS buffer. Fluorescence was measured using a Becton Dickinson FACS Canto II-HTS equipment and plotted against antibody concentration.

[5] = biological target: T2, Human CD40-his protein (Acro …); test: SPR, Biacore; antibody captured, human CD40-his flowed
Description: as §1

[6] = biological target: T4, human CD40-Fc protein (amino acid residue 21-193 of SEQ ID NO: 67 linked to N-terminus of amino acid residue … (human, biotin-labeled in the capture ELISA and in the benchmark blocking ELISA; unlabeled when coated in the ligand blocking ELISA); test: capture ELISA; antibody captured, biotin-labeled human CD40-Fc in solution
T4 construct: also called biotin-labeled human CD40-Fc; human CD40-Fc-biotin
Procedure: Plates were washed 4 times with wash buffer (PBS+0.05% Tween-20, PBST) and then blocked with 200 μl/well blocking buffer (5% w/v non-fatty milk in PBST) for 2 hours at 37° C. […] After a final wash, plates were incubated with 100 μl/well ELISA substrate TMB (Innoreagents, Cat # TMB-S-002). The reaction was stopped in 15 minutes at 25° C. with 50 μl/well 1M H₂SO₄, and the absorbance was read at 450 nm and plotted against antibody concentration. Data were analyzed using Graphpad Prism software and EC₅₀ values were reported.

[7] = biological target: T4, human CD40-Fc protein (amino acid …); test: competitive ELISA; biotin human CD40-Fc in solution, competitor coated BM2
Procedure: (§2) The ability of the mouse anti-CD40 antibodies of the present invention to block the binding of the Benchmark to human CD40 was measured using a competitive ELISA assay. […] The next day, plates were washed with wash buffer, and blocked with 5% w/v non-fatty milk in PBST for 2 hours at 37° C. Plates were then washed again using wash buffer. […] After incubation at 37° C. for 40 minutes, plates were washed 4 times using wash buffer. Then streptavidin conjugated HRP was added and incubated for 40 minutes at 37° C. to detect biotin-labeled human CD40-Fc bound to plates. Plates were washed again using wash buffer. Finally, TMB was added and the reaction was stopped using 1M H₂SO₄, and the absorbance was read at 450 nm. Data were analyzed using Graphpad Prism software and IC₅₀ values were reported.

[8] = biological target: T4, human CD40-Fc protein (amino acid …); test: competitive ELISA; coated human CD40-Fc, competitor biotin human CD40L-his
Procedure: (§3) Serially diluted the mouse anti-CD40 antibodies of the present invention or the controls (starting at 200 nM with a four-fold serial dilution) in 2.5% w/v non-fatty milk in PBST were prepared to the plates and incubated with the human CD40-Fc proteins at room temperature for 40 minutes. […] Plates were washed again. 100 μl/well of streptavidin conjugated HRP was added and incubated for 40 minutes at 37° C. Plates were washed again using wash buffer. Finally, TMB was added and the reaction was stopped using 1M H₂SO₄, and the absorbance was read at 450 nm. Data were analyzed using Graphpad Prism software and IC₅₀ values were reported.

[9] = biological target: T1, full length human CD40 (uniprot # …); test: flow cytometry on 293T-CD40 cells, PE goat anti-human IgG Fc-gamma secondary antibody, MFI
Procedure: Following an incubation of 40 minutes at 4° C. in dark, cells were washed three times and resuspended in FACS buffer. Fluorescence was measured using a Becton Dickinson FACS Canto II-HTS equipment and plotted against antibody concentration.

[10] = biological target: T4, human CD40-Fc protein (amino acid …); test: capture ELISA (antibody captured on coated goat anti-human IgG F(ab')2, biotin-labeled human CD40-Fc in solution, streptavidin-HRP, OD(450-630))
[11] = biological target: T4, human CD40-Fc protein (amino acid …); test: ligand blocking ELISA: human CD40-Fc coated, antibody titrated, then biotin-labeled human CD40L-his (blocked ligand), streptavidin-HRP, OD(450-630)
Procedure: as §3

[12] = biological target: T4, human CD40-Fc protein (amino acid …); test: benchmark blocking ELISA: BM2 (Selicrelumab) coated as competitor, antibody titrated in biotin-labeled human CD40-Fc solution, streptavidin-HRP, OD(450-630)
Procedure: as §2

cell based functional assay (EC50, nM) [1]: 4.25 nM
Kd [2]: 11.3 nM
Kd [3]: 4.04 nM
EC50 [4]: 1.85 nM
Kd [5]: 11.9 nM
koff [5]: 0.00968 s⁻¹
kon [5]: 814000 M⁻¹ s⁻¹
EC50 [6]: 0.248 nM
IC50 [7]: 0.111 nM
IC50 [8]: 3 nM
EC50 (read off the curve) [9]: ~0.3 µg/mL
EC50 (read off the curve) [10]: ~0.04 µg/mL
IC50 (read off the curve) [11]: ~0.5 µg/mL
IC50 (read off the curve) [12]: ~0.02 µg/mL
B1: humanized antibody huC1C1-V7 (antibody, human IgG1, kappa, V domains shown)
VH: EVQLVESGGGVVQPGRSLRLSCAASGFTFSNYGMSWVRQAPGKGLEWVASISSGGDDTYYPDNVKGRFTISRDNSKNTLYLQMNSLRAEDTAVYYCTRAGGKAMDYWGQGTLVTVSS
VL: EIVLTQSPATLSLSPGERATLSCRASQSIRDNLHWYQQKPGQAPRLLIYYASQSISGIPARFSGSGSGTDFTLTISSLEPEDFAVYYCQQFNSWPLTFGQGTKVEIKR
notes: Human IgG1/kappa; also called humanized C1C1-V7
